From patent US20140303084
Where a chain is given by its changes, count along the chain named.

Columns and labels:
[1] = system: T1, NGALGFRSVV PRAAG KLTCLASYCWLFWTGIA
T1 sequence: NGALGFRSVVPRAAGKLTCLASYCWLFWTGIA

rRASGKLTCLASYCWLFWTGIA = system: T2, rRASGKLTCLASYCWLFWTGIA
T2 sequence: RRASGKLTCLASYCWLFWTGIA

RRAPGKLQCLASYCWLFWTGI = system: T3, RRAPGKLQCLASYCWLFWTGI
T3 sequence: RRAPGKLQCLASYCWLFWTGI

AQLRRKLTCLASYCWLFGFFSP = system: T4, AQLRRKLTCLASYCWLFGFFSP
T4 sequence: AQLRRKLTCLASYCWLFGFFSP

[2] = system: T5, RRAPGKLTCLASYCWK(PEG2-Biotin)FWTGIA
T5 sequence: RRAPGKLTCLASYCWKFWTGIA

[3] = system: T6, RRAPGKLTCLASYCWLF WAGYP SLRGSLLVGV
T6 sequence: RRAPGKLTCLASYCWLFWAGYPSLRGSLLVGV

[4] = system: T7, RRAPGKLTCLASYCWLFWTK(PEG2-Biotin)IA
T7 sequence: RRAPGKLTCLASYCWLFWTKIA

[5] = system: T8, PRIRTVGPGSRSASGKLTCSASYCWLFWTGIA
T8 sequence: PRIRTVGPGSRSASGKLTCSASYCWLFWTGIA

[6] = system: T9, RRAPGKLTCLASYCWLF YTGIA HGHPMEHRKS
T9 sequence: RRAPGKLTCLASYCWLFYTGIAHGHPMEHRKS

[7] = system: T10, MQIRQAHQPR RSAPQ KLTCLASYCWLFWTGIA
T10 sequence: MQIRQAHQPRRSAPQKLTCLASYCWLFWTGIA

[8] = system: T11, GRAMAAEPWP RQAPG KLTCLASYCWLFWTGIA
T11 sequence: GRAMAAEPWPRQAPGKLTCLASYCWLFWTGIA

[9] = system: T12, AIGTWFLWCYSALCTLKGPARR (retro)
T12 sequence: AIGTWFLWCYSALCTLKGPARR

RGRSAKLRCLASYCWLFFGVIL = system: T13, RGRSAKLRCLASYCWLFFGVIL
T13 sequence: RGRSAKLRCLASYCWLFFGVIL

[10] = system: T14, (KLTCLASYCWLFG)2═N-O-(CH2)3-O-N═
T14 sequence: KLTCLASYCWLFG

[11] = system: T15, RRAPGKLTCLASYCWLF LTGWA RVPLPPRPHP
T15 sequence: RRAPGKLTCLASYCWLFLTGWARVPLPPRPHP

VSGTGRLTCVASYCWMFQLGIF = system: T16, VSGTGRLTCVASYCWMFQLGIF
T16 sequence: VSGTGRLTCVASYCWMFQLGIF

KLTALASYCWLF = system: T17, KLTALASYCWLF
T17 sequence: KLTALASYCWLF

[12] = system: T18, rRAPGKLTCLASYCWLFWTGIA-PEG16-Lys(PEG2-Biotin)-PEG16-Lys(palmitoyl)
T18 sequence: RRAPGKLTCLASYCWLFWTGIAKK

KLTCLASYC-Nal-LF = system: T19, KLTCLASYC-Nal-LF
T19 sequence: KLTCLASYCXLF

SGRGGKLTCQASFCQLFGNGLS = system: T20, SGRGGKLTCQASFCQLFGNGLS
T20 sequence: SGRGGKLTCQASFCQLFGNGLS

[13] = system: T21, RRAPGKLTCL-MeAla-SYCWLFWTGIA
T21 sequence: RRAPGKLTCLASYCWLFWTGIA

[14] = system: T22, RRAPGKLTCLASYCWLK(PEG2-Biotin)WTGIA
T22 sequence: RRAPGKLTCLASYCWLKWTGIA

NGGMQKPACLASQCWLFANPLP = system: T23, NGGMQKPACLASQCWLFANPLP
T23 sequence: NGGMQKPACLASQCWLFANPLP

compound 4 = system: T24, compound 4
T24 sequence: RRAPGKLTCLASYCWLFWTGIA

LTWREKLACLASYCWLFLWGAP = system: T25, LTWREKLACLASYCWLFLWGAP
T25 sequence: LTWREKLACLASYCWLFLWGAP

KLACLASYCWLF = system: T26, KLACLASYCWLF
T26 sequence: KLACLASYCWLF

[15] = system: T27, RRAPGKLTCLASYCWLF RTQIA TPESEYRQQA
T27 sequence: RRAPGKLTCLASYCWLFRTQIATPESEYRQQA

[16] = system: T28, PRIRTVGPGSRSASGKLTCLASYCWLAWTGIA
T28 sequence: T8 sequence with S20L, F27A

rRAAGKATCLASYCWLFATGIA = system: T29, rRAAGKATCLASYCWLFATGIA
T29 sequence: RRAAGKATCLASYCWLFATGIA

RRAPGKLTCLASYCWLFwTGIA [17] = system: T30, RRAPGKLTCLASYCWLFwTGIA
T30 sequence: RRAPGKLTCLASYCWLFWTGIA

[18] = system: T31, SKQGRPISSDrRAAGKSTCLASYCWLFWTGIA
T31 sequence: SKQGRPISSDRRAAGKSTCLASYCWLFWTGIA

[19] = system: T32, RRAPGKLTCLASYCWLF WTGLS RYQWQAQEDV
T32 sequence: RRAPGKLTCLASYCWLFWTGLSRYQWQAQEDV

[20] = system: T33, RRAPGKLTCLASYCWLF WAGIA PHRPLKERVR
T33 sequence: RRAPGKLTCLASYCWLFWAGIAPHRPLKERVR

[21] = system: T34, PRIRTVGPGSRSASGKLTCLASACWLFWTGIA
T34 sequence: T8 sequence with S20L, Y23A

[22] = system: T35, PRIRTVGPSSRSASGKLTCLASYCWLFWTGIA
T35 sequence: T8 sequence with G9S, S20L

[23] = system: T36, TALSRGLVTM RTAPD KLTCLASYCWLFWTGIA
T36 sequence: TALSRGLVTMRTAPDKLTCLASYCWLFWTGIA

[24] = system: T37, RRAPGKLQCLASYCWLFWTGIAAAAGAP
T37 sequence: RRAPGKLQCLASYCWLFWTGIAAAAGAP

PGKLQCLASYCWLFWTGIA = system: T38, PGKLQCLASYCWLFWTGIA
T38 sequence: PGKLQCLASYCWLFWTGIA

Ac-K-k-MeLeu-TCLASYCWLF = system: T39, Ac-K-k-MeLeu-TCLASYCWLF
T39 sequence: KKLTCLASYCWLF

[25] = system: T40, RRAPGKCTALASYAWCFWTGIA-CONH2
T40 sequence: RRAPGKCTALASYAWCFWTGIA

RRAPGKLTCLAsYCWLFWTGIA [26] = system: T41, RRAPGKLTCLAsYCWLFWTGIA
T41 sequence: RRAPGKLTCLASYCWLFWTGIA

RRAKGKLQCLASYCWLFWTGIA = system: T42, RRAKGKLQCLASYCWLFWTGIA
T42 sequence: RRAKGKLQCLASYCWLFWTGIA

[27] = system: T43, PRIRTVGPGSRSASGKLSCLASYCWLFWTGIA
T43 sequence: T8 sequence with T18S, S20L

[28] = system: T44, PRIRTVGPGSRSASGKLTCLASYCWLFLTGIA
T44 sequence: T8 sequence with S20L, W28L

RCAQSRLPWLVSYCWLFSPYGM = system: T45, RCAQSRLPWLVSYCWLFSPYGM
T45 sequence: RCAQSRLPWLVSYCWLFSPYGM

## human Factor IXa
[1]
  Vmax, FXa generation assay: > 2
rRASGKLTCLASYCWLFWTGIA
  Vmax, FXa generation assay; (++) means 1-2: (++)
RRAPGKLQCLASYCWLFWTGI
  Vmax, FXa generation assay: > 2
AQLRRKLTCLASYCWLFGFFSP
  Vmax, FXa generation assay; (++) means 1-2: (++)
[2]
  Vmax, FXa generation assay: > 3
[3]
  Vmax, FXa generation assay: > 3
[4]
  Vmax, FXa generation assay: > 2
[5]
  Vmax, FXa generation assay; (++) means 1-2: (++)
[6]
  Vmax, FXa generation assay: > 3
[7]
  Vmax, FXa generation assay: > 2
[8]
  Vmax, FXa generation assay: > 2
[9]
  Vmax, FXa generation assay; (++) means 1-2: (++)
RGRSAKLRCLASYCWLFFGVIL
  Vmax, FXa generation assay: > 2
[10]
  Vmax, FXa generation assay: > 3
[11]
  Vmax, FXa generation assay; (++) means 1-2: (++)
VSGTGRLTCVASYCWMFQLGIF
  Vmax, FXa generation assay; (++) means 1-2: (++)
KLTALASYCWLF
  Vmax, FXa generation assay; (++) means 1-2: (++)
[12]
  Vmax, FXa generation assay: > 3
KLTCLASYC-Nal-LF
  Vmax, FXa generation assay: > 3
SGRGGKLTCQASFCQLFGNGLS
  Vmax, FXa generation assay; (++) means 1-2: (++)
[13]
  Vmax, FXa generation assay; (++) means 1-2: (++)
[14]
  Vmax, FXa generation assay: > 2
NGGMQKPACLASQCWLFANPLP
  Vmax, FXa generation assay; (++) means 1-2: (++)
Compound 4
  KM (nM) of hFIXa for FX: 11 nM
  Vmax, FXa generation assay with hFIXa: > 2
  kcat (min^-1) of hFIXa for FX, compound at 1 µM: 0.0171 min⁻¹
  Δ KM (Km compound/Km buffer): 0.14
LTWREKLACLASYCWLFLWGAP
  Vmax, FXa generation assay; (++) means 1-2: (++)
KLACLASYCWLF
  Vmax, FXa generation assay: > 2
[15]
  Vmax, FXa generation assay: > 3
[16]
  Vmax, FXa generation assay: > 3
rRAAGKATCLASYCWLFATGIA
  Vmax, FXa generation assay; (++) means 1-2: (++)
RRAPGKLTCLASYCWLFwTGIA [17]
  Vmax, FXa generation assay; (++) means 1-2: (++)
[18]
  Vmax, FXa generation assay: > 3
[19]
  Vmax, FXa generation assay: > 2
[20]
  Vmax, FXa generation assay: > 2
[21]
  Vmax, FXa generation assay; (++) means 1-2: (++)
[22]
  Vmax, FXa generation assay: > 3
[23]
  Vmax, FXa generation assay; (++) means 1-2: (++)
[24]
  Vmax, FXa generation assay; (++) means 1-2: (++)
PGKLQCLASYCWLFWTGIA
  Vmax, FXa generation assay: > 2
Ac-K-k-MeLeu-TCLASYCWLF
  Vmax, FXa generation assay: > 2
[25]
  Vmax, FXa generation assay; (++) means 1-2: (++)
RRAPGKLTCLAsYCWLFWTGIA [26]
  Vmax, FXa generation assay; (++) means 1-2: (++)
RRAKGKLQCLASYCWLFWTGIA
  Vmax, FXa generation assay; (++) means 1-2: (++)
[27]
  Vmax, FXa generation assay: > 3
[28]
  Vmax, FXa generation assay: > 3
RCAQSRLPWLVSYCWLFSPYGM
  Vmax, FXa generation assay: > 1.5
